Source: article doi:10.1101/2022.11.10.516045

Assays:
[1] = molecular target: mini-procollagen III (human); test: SDS-PAGE in non-reducing against reducing
[2] = molecular target: human PCPE-1 (procollagen C-proteinase enhancer protein-1), no tag (human) (UniProt Q15113); test: SPR
[3] = molecular target: homotrimeric mini-procollagen II (human); test: SDS-PAGE in non-reducing against reducing
[4] = molecular target: α2 chain of mini-procollagen I (human); test: co-purification by the tag of one chain, SDS-PAGE of the BMP-1 cleavage products

Sequence of UniProt Q15113 (Q15113 26-449): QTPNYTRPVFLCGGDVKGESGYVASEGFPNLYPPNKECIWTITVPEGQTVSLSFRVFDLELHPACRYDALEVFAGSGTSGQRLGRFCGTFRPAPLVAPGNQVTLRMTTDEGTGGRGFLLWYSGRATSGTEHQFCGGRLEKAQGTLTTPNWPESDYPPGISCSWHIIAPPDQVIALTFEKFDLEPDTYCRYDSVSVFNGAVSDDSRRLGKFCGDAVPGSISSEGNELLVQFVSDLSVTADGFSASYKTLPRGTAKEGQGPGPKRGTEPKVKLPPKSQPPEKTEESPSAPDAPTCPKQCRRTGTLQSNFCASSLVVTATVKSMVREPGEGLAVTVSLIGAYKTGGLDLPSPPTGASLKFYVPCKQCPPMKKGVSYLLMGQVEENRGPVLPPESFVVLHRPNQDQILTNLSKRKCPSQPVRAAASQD

| stoichiometry N [1] | KD1 (heterogeneous ligand model) [2] [nM] | KD2 (heterogeneous ligand model) [2] [nM] | stoichiometry N [3] | stoichiometry N (α1 chains for one α2 chain) [4] | Substance |
| --- | --- | --- | --- | --- | --- |
| 3 | < 15 | < 15 | – | – | mini-procollagen III (domain or fragment) |
| – | < 15 | < 15 | – | – | heterotrimeric mini-procollagen I (complex) |
| – | < 15 | < 15 | 3 | – | homotrimeric mini-procollagen II (domain or fragment) |
| – | – | – | – | 2 | α1 chain of mini-procollagen I (domain or fragment) |
